From article PMC1636413 (Nucleic Acids Research, 2006)

Tests used:
Test in all cases: EMSA
MutSwt = target: T1, MutSwt (Escherichia coli K12, UniProt P23909 1-853)
T1 sequence: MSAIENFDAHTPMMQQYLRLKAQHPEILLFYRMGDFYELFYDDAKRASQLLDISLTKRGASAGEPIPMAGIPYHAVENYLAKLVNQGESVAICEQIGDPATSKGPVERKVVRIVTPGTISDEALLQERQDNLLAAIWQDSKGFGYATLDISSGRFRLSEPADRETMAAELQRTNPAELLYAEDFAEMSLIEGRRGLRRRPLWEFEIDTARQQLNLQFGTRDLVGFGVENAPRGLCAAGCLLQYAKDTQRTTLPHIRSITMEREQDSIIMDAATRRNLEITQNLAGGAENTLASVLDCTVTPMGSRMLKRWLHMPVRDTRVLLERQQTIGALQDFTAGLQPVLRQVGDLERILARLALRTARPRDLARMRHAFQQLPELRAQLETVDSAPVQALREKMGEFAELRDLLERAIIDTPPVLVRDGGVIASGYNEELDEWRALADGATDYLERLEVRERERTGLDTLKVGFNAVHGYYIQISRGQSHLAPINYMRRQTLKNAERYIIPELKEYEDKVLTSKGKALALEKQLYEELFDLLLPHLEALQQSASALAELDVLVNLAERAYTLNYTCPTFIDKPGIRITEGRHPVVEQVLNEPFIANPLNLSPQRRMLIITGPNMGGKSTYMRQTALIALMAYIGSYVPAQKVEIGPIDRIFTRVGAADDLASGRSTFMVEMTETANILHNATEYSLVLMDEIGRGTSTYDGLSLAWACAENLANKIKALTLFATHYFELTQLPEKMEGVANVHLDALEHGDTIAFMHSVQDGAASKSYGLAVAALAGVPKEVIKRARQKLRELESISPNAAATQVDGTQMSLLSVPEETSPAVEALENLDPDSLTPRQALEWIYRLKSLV

MutSCF/D835R = target: T2, MutSCF/D835R (Escherichia coli K12, UniProt P23909 1-853, C93A;C235S;C239A;C297S;C569S;C711V;D835R)
T2 sequence: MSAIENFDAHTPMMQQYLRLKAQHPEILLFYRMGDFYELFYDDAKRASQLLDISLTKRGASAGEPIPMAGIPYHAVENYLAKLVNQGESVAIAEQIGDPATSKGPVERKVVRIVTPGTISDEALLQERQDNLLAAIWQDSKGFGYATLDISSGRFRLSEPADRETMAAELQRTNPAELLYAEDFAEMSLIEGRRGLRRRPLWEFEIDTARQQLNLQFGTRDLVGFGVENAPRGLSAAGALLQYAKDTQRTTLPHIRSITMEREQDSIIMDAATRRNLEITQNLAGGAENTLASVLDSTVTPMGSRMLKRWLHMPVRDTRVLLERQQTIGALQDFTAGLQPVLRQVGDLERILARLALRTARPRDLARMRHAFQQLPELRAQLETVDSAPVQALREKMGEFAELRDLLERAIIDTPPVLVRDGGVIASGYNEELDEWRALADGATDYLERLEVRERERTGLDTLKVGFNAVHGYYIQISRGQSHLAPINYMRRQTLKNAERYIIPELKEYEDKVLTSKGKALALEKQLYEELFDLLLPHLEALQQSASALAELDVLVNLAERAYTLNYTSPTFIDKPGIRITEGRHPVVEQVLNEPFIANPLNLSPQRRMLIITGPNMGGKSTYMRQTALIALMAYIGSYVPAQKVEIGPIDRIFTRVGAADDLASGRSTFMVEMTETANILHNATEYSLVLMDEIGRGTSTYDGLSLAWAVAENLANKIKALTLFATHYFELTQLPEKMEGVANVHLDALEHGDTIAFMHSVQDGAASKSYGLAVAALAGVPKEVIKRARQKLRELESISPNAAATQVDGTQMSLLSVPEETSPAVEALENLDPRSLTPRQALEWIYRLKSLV

[1] = target: T3, MutSCF (cysteine-free MutS) (Escherichia coli K12, UniProt P23909 1-853, C93A;C235S;C239A;C297S;C569S;C711V)
T3 sequence: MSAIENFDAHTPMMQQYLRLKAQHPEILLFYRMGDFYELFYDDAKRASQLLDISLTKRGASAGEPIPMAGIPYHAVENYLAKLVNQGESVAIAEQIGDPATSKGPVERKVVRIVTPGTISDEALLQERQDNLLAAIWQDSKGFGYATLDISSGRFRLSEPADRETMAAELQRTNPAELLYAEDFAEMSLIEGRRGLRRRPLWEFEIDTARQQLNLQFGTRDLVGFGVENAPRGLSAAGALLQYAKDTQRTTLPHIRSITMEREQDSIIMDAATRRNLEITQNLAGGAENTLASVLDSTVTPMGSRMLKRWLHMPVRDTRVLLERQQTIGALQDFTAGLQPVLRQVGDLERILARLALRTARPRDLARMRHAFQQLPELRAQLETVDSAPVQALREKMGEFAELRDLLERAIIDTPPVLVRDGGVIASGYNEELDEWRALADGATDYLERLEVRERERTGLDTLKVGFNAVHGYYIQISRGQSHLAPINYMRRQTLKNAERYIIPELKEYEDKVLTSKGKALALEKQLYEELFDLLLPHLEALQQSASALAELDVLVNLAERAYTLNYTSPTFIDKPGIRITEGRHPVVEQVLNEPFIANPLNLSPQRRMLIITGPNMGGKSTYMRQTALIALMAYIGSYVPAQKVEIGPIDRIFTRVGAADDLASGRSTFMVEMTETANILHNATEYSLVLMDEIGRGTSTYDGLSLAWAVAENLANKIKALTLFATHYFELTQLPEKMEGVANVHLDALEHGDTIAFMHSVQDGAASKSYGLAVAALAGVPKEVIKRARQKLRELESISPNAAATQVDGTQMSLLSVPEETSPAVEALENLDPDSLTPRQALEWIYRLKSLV

B1: 42 bp G/T heteroduplex (dsDNA)
DNA 1: TATTAATTTCGCGGGCTCGAGAGCTTCATCCTCTACGCCGGA
DNA 2: TCCGGCGTAGAGGATGAAGCTTTCGAGCCCGCGAAATTAATA
B1 was tested, and the binding result (MutSwt) was “binds”, the “apparent K (half saturation)” value (MutSCF/D835R) was 45 ± 3 nM and the “apparent K (half saturation)” value [1] was 42 ± 2 nM.
